In general, IC50 refers to the concentration that inhibits the measured activity by half. A higher IC50 goes with lower potency. By EC50 is commonly meant the concentration giving half of the maximal effect.

From patent publication US20240116985A1, “STAPLED PEPTIDES AND METHODS THEREOF” (priority 2020, published 2024) come the findings set out here.

Starred links: 1 amine or outer side, 2 acyl side, 3 side chain; linkers in the order of their positions; H or OH if unused. Positions of bridges follow the written chain, without caps; N, C: chain ends. Non-standard residues stand in square brackets, D forms with d. Primed or numbered codes have the meaning given here. No end group written: not given here. *: point of attachment. PyrS2″ = (S)-3-amino-1-((pent-4-en-1-yloxy)carbonyl)pyrrolidine-3-carboxylic acid (stapling residue), C=CCCCOC(=O)N1CC[C@@](N[*:1])(C(=O)[*:2])C1; B5(4) = 2,2-bis(4-pentenyl)glycine = 2-amino-2-(pent-4-en-1-yl)hept-6-enoic acid (stitching residue), C=CCCCC(CCCC=C)(N[*:1])C(=O)[*:2]; B5(5) = 2,2-bis(4-pentenyl)glycine, 2-amino-2-(pent-4-en-1-yl)hept-6-enoic acid (stitching residue), C=CCCCC(CCCC=C)(N[*:1])C(=O)[*:2]; (CH2NMe2)4SEF = (S)-2-amino-3-(4-(3-(dimethylamino)prop-1-yn-1-yl)phenyl)propanoic acid, CN(C)CC#Cc1ccc(C[C@H](N[*:1])C(=O)[*:2])cc1; TfeGA = (S)-2-amino-3-((carboxymethyl)(2,2,2-trifluoroethyl)amino)propanoic acid, O=C([C@H](CN(CC(=O)[*:3])CC(F)(F)F)N[*:1])[*:2]; B5(31) = 2-amino-2-(pent-4-en-1-yl)hept-6-enoic acid (bis-pentenylglycine, stitching residue), C=CCCCC(CCCC=C)(N[*:1])C(=O)[*:2]; PyrS2 = (S)-3-amino-1-((pent-4-en-1-yloxy)carbonyl)pyrrolidine-3-carboxylic acid, C=CCCCOC(=O)N1CC[C@@](N[*:1])(C(=O)[*:2])C1; 5iPr3COOHF = (S)-3-(2-amino-2-carboxyethyl)-5-isopropylbenzoic acid, CC(C)c1cc(C[C@H](N[*:1])C(=O)[*:2])cc(C(=O)[*:3])c1; (3C)TriAzLys = (S)-2-amino-6-(4-propyl-1H-1,2,3-triazol-1-yl)hexanoic acid, CCCc1cn(CCCC[C@H](N[*:1])C(=O)[*:2])nn1; (bismethoxyethylamine)GlnR″ = N5,N5-bis(2-methoxyethyl)-L-glutamine, COCCN(CCOC)C(=O)CC[C@H](N[*:1])C(=O)[*:2]; Lithocholoyl = C[C@H](CCC(=O)*)[C@H]1CC[C@H]2[C@@H]3CC[C@@H]4C[C@H](O)CC[C@]4(C)[C@H]3CC[C@]12C; MorphAsn = (S)-2-amino-4-morpholino-4-oxobutanoic acid, O=C(C[C@H](N[*:1])C(=O)[*:2])N1CCOCC1; B5(3) = 2,2-bis(4-pentenyl)glycine (stitching residue), C=CCCCC(CCCC=C)(N[*:1])C(=O)[*:2]; CO2Hex = N-term cyclohexyl hydrogen carbonate, O=C(OC1CCCCC1)*; CO2Ph = N-term phenyl hydrogen carbonate, O=C(Oc1ccccc1)*; Nva(5-morpholino) = N[C@@H](CCCN1CCOCC1)C(=O)O; Phe(3-COOH) = N[C@@H](Cc1cccc(C(=O)O)c1)C(=O)O; 2F3MeF = Cc1cccc(C[C@H](N[*:1])C(=O)[*:2])c1F; Phe(2-CF3) = N[C@@H](Cc1ccccc1C(F)(F)F)C(=O)O; Phe(2-Cl) = N[C@@H](Cc1ccccc1Cl)C(=O)O; Bta = N[C@@H](Cc1csc2ccccc12)C(=O)O; Lys(iPr) = CC(C)NCCCC[C@H](N)C(=O)O; αAllylPro = C=CC[C@@]1(C(=O)O)CCCN1; Azidoacetyl = [N-]=[N+]=NCC(=O)*; tBuAla = CC(C)(C)C[C@H](N)C(=O)O; 3Thi = N[C@@H](Cc1ccsc1)C(=O)O; Cha = N[C@@H](CC1CCCCC1)C(=O)O; hSer = N[C@@H](CCO)C(=O)O; 34ClF = not defined here; Aib = CC(C)(N)C(=O)O; Moc = COC(=O)*

First the molecules themselves.
B1: I-1460 (peptide)
peptide: Ac-[αAllylPro]D[tBuAla][B5(5)]DDAAFQ[PyrS2][3Thi][Bta]H-NH2
modifications: staple 1-4, 4-11
B2: I-1469 (peptide)
peptide: Ac-[αAllylPro]DK(Lithocholoyl)[B5(5)]DDAAFL[PyrS2][3Thi][Bta]Q-NH2
modifications: staple 1-4, 4-11
B3: I-1467 (peptide)
peptide: Ac-[αAllylPro]D[tBuAla][B5(4)]DD[(CH2NMe2)4SEF]AFL[PyrS2]F[Bta]Q
modifications: staple 1-4, 4-11
B4: I-1459 (peptide)
peptide: Ac-[αAllylPro]D[tBuAla][B5(5)]DDAAFQ[PyrS2][3Thi][Bta]H-NH2
modifications: staple 1-4, 4-11
B5: I-2332 (peptide)
peptide: Ac-[αAllylPro]E[tBuAla][B5(31)]NTAAFN[PyrS2″][3Thi][Bta]Q-NH2
modifications: staple 1-4, 4-11
B6: I-1060 (peptide)
peptide: Azidoacetyl-[αAllylPro]D[tBuAla][B5(5)]DDAAFT[PyrS2][Phe(2-Cl)][Bta][dT]-NH2
modifications: staple 1-4, 4-11
B7: I-2326 (peptide)
peptide: CO2Ph-[αAllylPro]D[tBuAla][B5(31)]DDAAFQ[PyrS2″][3Thi][Bta]H-NH2
modifications: staple 1-4, 4-11
B8: I-2420 (peptide)
peptide: Ac-[αAllylPro]N[Cha][B5(5)]DQNAFL[PyrS2″]F[Bta]K-NH2
modifications: staple 1-4, 4-11
B9: I-2439 (peptide)
peptide: Ac-[αAllylPro][hSer][tBuAla][B5(5)]DQAAFH[PyrS2″]F[Bta]Q-NH2
modifications: staple 1-4, 4-11
B10: I-2438 (peptide)
peptide: Ac-[αAllylPro][hSer][tBuAla][B5(5)]DHAAFT[PyrS2″]F[Bta]Q-NH2
modifications: staple 1-4, 4-11
B11: I-2408 (peptide)
peptide: Ac-[αAllylPro]D[tBuAla][B5(5)]NT[Aib]AFL[PyrS2][3Thi][Bta]Q-NH2
modifications: staple 1-4, 4-11
B12: I-2335 (peptide)
peptide: Ac-[αAllylPro]D[tBuAla][B5(3)]N[Phe(3-COOH)]AAFN[PyrS2″][3Thi][Bta]Q-NH2
modifications: staple 1-4, 4-11
B13: I-2432 (peptide)
peptide: Ac-[αAllylPro]D[tBuAla][B5(5)]D[Phe(3-COOH)]AAFL[PyrS2″][Phe(2-CF3)][Bta]S[(3C)TriAzLys]-NH2
modifications: staple 1-4, 4-11
B14: I-2413 (peptide)
peptide: Ac-[αAllylPro]D[tBuAla][B5(5)]NT[Aib]AFN[PyrS2″][3Thi][Bta]R-NH2
modifications: staple 1-4, 4-11
B15: I-2429 (peptide)
peptide: Ac-[αAllylPro]D[Cha][B5(5)]DQ[Lys(iPr)]AFL[PyrS2″]F[Bta]K-NH2
modifications: staple 1-4, 4-11
B16: I-2405 (peptide)
peptide: {2‑(3-(allyloxy)phenyl)acetyl}-PD[tBuAla][B5(5)]D[TfeGA]AAFL[PyrS2][3Thi][Bta]Q-NH2
modifications: staple 4-11, N-4; also: staples hydrogenated, -CH=CH- reduced to -CH2-CH2-
B17: I-2325 (peptide)
peptide: CO2Hex-[αAllylPro]D[tBuAla][B5(31)]D[Phe(3-COOH)]AAFL[PyrS2″][Phe(2-Cl)][Bta]A-NH2
modifications: staple 1-4, 4-11
B18: I-2327 (peptide)
peptide: CO2Ph-[αAllylPro]D[tBuAla][B5(31)]D[Phe(3-COOH)]AAFL[PyrS2″][Phe(2-Cl)][Bta]A-NH2
modifications: staple 1-4, 4-11
B19: I-2417 (peptide)
peptide: Ac-[αAllylPro]D[tBuAla][B5(5)]NT[Aib]AFN[PyrS2″][3Thi][34ClF]Q-NH2
modifications: staple 1-4, 4-11; reading uncertain; also: printed as Ac-PL3-Asp-Npg-B5-Asn-Thr-Aib-Ala-Phe-Asn-PyrS2-3Thi-34C1F-Gln-NH2
B20: I-2324 (peptide)
peptide: Moc-[αAllylPro]D[tBuAla][B5(3)]D[Phe(3-COOH)]AAFL[PyrS2″][Phe(2-Cl)][Bta]A-NH2
modifications: staple 1-4, 4-11
B21: I-1057 (peptide)
peptide: Azidoacetyl-[αAllylPro]D[tBuAla][B5(5)][3Thi][TfeGA]AAFN[PyrS2]D[Bta]Q-NH2
modifications: staple 1-4, 4-11; also: staple isomer unspecified: later eluting HPLC peak
B22: I-2334 (peptide)
peptide: Ac-[αAllylPro]D[tBuAla][B5(31)]NTAAFT[PyrS2″][3Thi][Bta]A-NH2
modifications: staple 1-4, 4-11
B23: I-2412 (peptide)
peptide: Ac-[αAllylPro]D[tBuAla][B5(5)]NT[Aib]AFN[PyrS2″][3Thi][Bta]F-NH2
modifications: staple 1-4, 4-11
B24: I-2333 (peptide)
peptide: Ac-[αAllylPro]N[tBuAla][B5(31)]NTAAFN[PyrS2″][3Thi][Bta]Q-NH2
modifications: staple 1-4, 4-11
B25: I-2422 (peptide)
peptide: Ac-[αAllylPro]N[Cha][B5(5)]DQSAFL[PyrS2″]F[Bta]K-NH2
modifications: staple 1-4, 4-11
B26: I-2428 (peptide)
peptide: Ac-[αAllylPro]N[Cha][B5(5)]DQ[Lys(iPr)]AFL[PyrS2″]F[Bta][Nva(5-morpholino)]-NH2
modifications: staple 1-4, 4-11
B27: I-2440 (peptide)
peptide: Ac-[αAllylPro]N[tBuAla][B5(5)]DQAAFH[PyrS2″]F[Bta]Q-NH2
modifications: staple 1-4, 4-11
B28: I-2322 (peptide)
peptide: Ac-[αAllylPro]D[tBuAla][B5(4)]D[Phe(3-COOH)][(bismethoxyethylamine)GlnR″]AFL[PyrS2″][2F3MeF][Bta]A-NH2
modifications: staple 1-4, 4-11
B29: I-2331 (peptide)
peptide: Ac-[αAllylPro]E[tBuAla][B5(31)]NTAAFN[PyrS2″][3Thi][Bta]Q-NH2
modifications: staple 1-4, 4-11; also: staple isomer, earlier eluting HPLC peak
B30: I-2431 (peptide)
peptide: Ac-[αAllylPro]D[tBuAla][B5(5)]D[5iPr3COOHF]QAFL[PyrS2″][Phe(2-CF3)][Bta]A-NH2
modifications: staple 1-4, 4-11
B31: I-2411 (peptide)
peptide: Ac-[αAllylPro]D[tBuAla][B5(5)]NT[Aib]AFN[PyrS2″][3Thi][Bta]A-NH2
modifications: staple 1-4, 4-11
B32: I-2421 (peptide)
peptide: Ac-[αAllylPro]N[Cha][B5(5)]DQQAFL[PyrS2″]F[Bta]K-NH2
modifications: staple 1-4, 4-11
B33: I-2426 (peptide)
peptide: Ac-[αAllylPro]N[Cha][B5(5)]DQ[Lys(iPr)]AFL[PyrS2″]F[Bta][MorphAsn]-NH2
modifications: staple 1-4, 4-11
B34: I-2419 (peptide)
peptide: Ac-[αAllylPro]N[Cha][B5(5)]DQ[hSer]AFL[PyrS2″]F[Bta]K-NH2
modifications: staple 1-4, 4-11
B35: I-1056 (peptide)
peptide: Azidoacetyl-[αAllylPro]D[tBuAla][B5(5)][3Thi][TfeGA]AAFN[PyrS2]D[Bta]Q-NH2
modifications: staple 1-4, 4-11; also: staple isomer unspecified: earlier eluting HPLC peak
B36: I-1055 (peptide)
peptide: Azidoacetyl-[αAllylPro]D[tBuAla][B5(5)]DDAAFN[PyrS2]F[Bta]H-NH2
modifications: staple 1-4, 4-11
B37: I-1058 (peptide)
peptide: Azidoacetyl-[αAllylPro]D[tBuAla][B5(5)]DDAAFN[PyrS2][3Thi][Bta][dT]-NH2
modifications: staple 1-4, 4-11

The first experiment has as its target full-length beta-Catenin (Uniprot ID P35222) (Homo sapiens (Human)) (UniProt P35222). The experiment can be described thus: fluorescence polarization competition; displacement of 5FAM-TCF4(10-53) from full-length beta-catenin. (Polarisation of emitted light reports the rotation of a fluorescent probe.)
Target sequence in this assay (P35222 whole entry): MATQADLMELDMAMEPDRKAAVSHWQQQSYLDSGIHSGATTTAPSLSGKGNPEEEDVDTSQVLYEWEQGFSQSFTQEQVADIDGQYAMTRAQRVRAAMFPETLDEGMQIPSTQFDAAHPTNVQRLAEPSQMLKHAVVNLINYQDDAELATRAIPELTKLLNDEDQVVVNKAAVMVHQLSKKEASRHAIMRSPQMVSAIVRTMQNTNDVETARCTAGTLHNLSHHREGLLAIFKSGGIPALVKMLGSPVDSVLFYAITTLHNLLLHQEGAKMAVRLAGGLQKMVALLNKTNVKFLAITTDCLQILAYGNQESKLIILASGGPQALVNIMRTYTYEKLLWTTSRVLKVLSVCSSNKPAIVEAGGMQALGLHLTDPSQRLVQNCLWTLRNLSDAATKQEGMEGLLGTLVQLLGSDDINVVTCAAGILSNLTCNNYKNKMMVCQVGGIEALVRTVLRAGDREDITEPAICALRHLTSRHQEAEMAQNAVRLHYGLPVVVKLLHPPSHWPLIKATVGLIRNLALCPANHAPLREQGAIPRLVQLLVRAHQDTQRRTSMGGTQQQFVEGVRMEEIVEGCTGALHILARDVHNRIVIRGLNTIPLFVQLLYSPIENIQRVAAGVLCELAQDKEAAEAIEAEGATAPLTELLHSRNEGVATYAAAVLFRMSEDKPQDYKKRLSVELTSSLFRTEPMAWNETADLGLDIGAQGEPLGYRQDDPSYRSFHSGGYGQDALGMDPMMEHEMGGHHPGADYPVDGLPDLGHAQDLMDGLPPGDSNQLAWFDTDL
Molecule B1 displayed an IC50 of 7 nM.
Same read-out and setting: as for B2, the figure is 95 nM; as for B3, 12 nM.
For the molecule B4, the IC50 came to 5 nM.

The target is the same in another experiment. Kind of experiment: fluorescence polarization competition; full-length beta-catenin, competitor 5FAM-TCF4(10-53) probe.
B5 came in with an IC50 of 10000 nM.
As for B6, the EC50 stood at 38 nM.
On to B7, for which the IC50 is 185 nM.
For B8, the IC50 is 2120 nM.
The same measure, in the same setting: as for B9, the figure is 2760 nM.
The molecule B10 registered an IC50 of 1760 nM.
The same measure, in the same setting: the figure for B11 is 10000 nM; for B12 it is 7 nM.
Still for that read-out and setting: as for B13, the figure is 60 nM.
Still for that read-out and setting: as for B14, the figure is 133 nM.
As to B15, the IC50 came out at 10 nM.
B16 had an IC50 of 568 nM.
On the same count and under the same terms, the figure for B17 is 1350 nM; for B18 it is 376 nM.
Still for that read-out and setting: as for B19, the figure is 158 nM; as for B20, 83 nM.
Take B21: the EC50 was 6640 nM.
B22 registered an IC50 of 656 nM.
On to B23, for which the IC50 amounted to 267 nM.
The same measure, in the same setting: as for B24, the figure is 10000 nM; as for B25, 3360 nM.
Molecule B26 returned an IC50 of 401 nM.
In the case of B27, the IC50 worked out at 360 nM.
Same read-out and setting: the figure for B28 is 7 nM; for B29 it is 10000 nM.
With B30, the IC50 came out at 33 nM.
On the same count and under the same terms, the figure for B31 is 140 nM.
Still for that read-out and setting: the figure for B32 is 145 nM; for B33 it is 46 nM; for B34 it is 203 nM.
Molecule B35 registered an EC50 of 6490 nM.
Same read-out and setting: the figure for B36 is 7 nM; for B37 it is 14 nM.
